From article PMC3359286 (2012)

Molecular target: methemoglobin (Homo sapiens, UniProt P69905)
Assay: ELISA

methemoglobin, sequence (P69905 2-142, chain 1 of 2): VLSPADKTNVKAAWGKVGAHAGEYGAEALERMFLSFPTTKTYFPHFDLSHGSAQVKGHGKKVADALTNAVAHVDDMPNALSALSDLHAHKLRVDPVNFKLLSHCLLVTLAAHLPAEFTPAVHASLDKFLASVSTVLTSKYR
methemoglobin, sequence (chain, as listed by the source, chain 2 of 2): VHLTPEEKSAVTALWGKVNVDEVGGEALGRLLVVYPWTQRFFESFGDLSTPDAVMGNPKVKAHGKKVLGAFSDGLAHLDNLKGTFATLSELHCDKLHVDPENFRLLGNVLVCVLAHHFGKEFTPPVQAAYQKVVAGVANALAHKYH

B1: Shr (protein)
chain: QEPLVQSQLVTTVALTQDNRLLVEEIGPYASQSAGKEYYKHIEKIIVDNDVYEKSLEGERTFDINYQGIKINADLIKDGKHELTIVNKKDGDILITFIKKGDKVTFISAQKLGTTDHQDSLKKDVLSDKTVPQNQGTQKVVKSGKNTANLSLITKLSQEDGAILFPEIDRYSDNKQIKALTQQITKVTVNGTVYKDLISDSVKDTNGWVSNMTGLHLGTKAFKDGENTIVISSKGFEDVTITVTKKDGQIHFVSAKQKQHVTAEDRQSTKLDVTTLEKAIKEADAIIAKESNKDAVKDLAEKLQVIKDSYKEIKDSKLLADTHRLLKDTIESYQAGEVSINNLTEGTYTLNFKANKENSEESSMLQGAFDKRAKLVVKADGTMEISMLNTALGQFLIDFSIESKGTYPAAVRKQVGQKDINGSYIRSEFTMPIDDLDKLHKGAVLVSAMGGQESDLNHYDKYTKLDMTFSKTVTKGWSGYQVETDDKEKGVGTERLEKVLVKLGKDLDGDGKLSKTELEQIRGELRLDHYELTDISLLKHAKNITELHLDGNQITEIPKELFSQMKQLRFLNLRSNHLTYLDKDTFKSNAQLRELYLSSNFIHSLEGGLFQSLHHLEQLDLSKNRIGRLCDNPFEGLSRLTSLGFAENSLEEIPEKALEPLTSLNFIDLSQNNLALLPKTIEKLRALSTIVASRNHITRIDNISFKNLPKLSVLDLSTNEISNLPNGIFKQNNQLTKLDFFNNLLTQVEESVFPDVETLNLDVKFNQIKSVSPKVRALIGQHKLTPQKHIAKLEASLDGEKIKYHQAFSLLDLYYWEQKTNSAIDKELVSVEEYQQLLQEKGSDTVSLLNDMQVDWSIVIQLQKKASNGQYVTVDEKLLSNDPKDDLTGEFSLKDPGTYRIRKALITKKFATQKEHIYLTSNDILVAKGPHSHQKDLVENGLRALNQKQLRDGIYYLNASMLKTDLASESMSNKAINHRVTLVVKKGVSYLEVEFRGIKVGKMLGYLGELSYFVDGYQRDLAGKPVGRTKKAEVVSYFTDVTGLPLADRYGKNYPKVLRMKLIEQAKKDGLVPLQVFVPIMDAISKGSGLQTVFMRLDWASLTTEKAKVVKETNNPQENSHLTSTDQLKGPQNRQQEKTPTSPPSAATGIANLTDLLAKKATGQSTQETSKTDDTDKAEKLKQLVRDHQTSIEGKTAKDTKTKKSDKKHRSNQQSNGEESSSRYHLIAGLSSFMIVALGFIIGRKTLFK
modifications: holoShr (heme-bound), ferric hemoglobin (metHb)
  Kd: 50 nM
